# Results: the supplement of paper PMC9170038
# Test system: MS2 coat protein
# Assay: apparent KD of MS2 coat protein; designed switch direction (-1 OFF switch, 1 ON switch): -1; higher = weaker reporter binding
# Outline: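 The buffer was Tris-HCl pH 7.5 with KCl, MgCl2, BSA, DTT, tRNA and Tween-20. In it, SNAP-549-labelled MS2 coat protein was titrated in doubling steps from 0.7 or 1.5 nM to 3 µM over chip-bound RNA switches transcribed by stalled E. coli RNA polymerase on Illumina chips. Apparent KD is the per-design median over clusters of curve fits to normalised fluorescence.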
# [1] = input ligand: microRNA oligo, concentration not stated
# [2] = Eterna round: R95, input ligand: microRNA oligo, concentration not stated
# [3] = Eterna round: R95, input ligand: FMN 200 uM
# [4] = Eterna round: R95, input ligand: none
sequence,measurement,setting,value
"AGUCCUGGAGUUAGGAUAUGGCGUAUCGCUGCGCUUCAGAAGGGACUUGAGGAUCACCCAAGUAGCCGUGAGGG [salish99_bmod_ex4_r4_008] (Eterna round: R97, puzzle: Brourd's mod of Exclusion 4)",apparent KD of MS2 coat protein,input ligand: FMN 200 uM,81.7 nM
same,apparent KD of MS2 coat protein,input ligand: none,82.4 nM
"AGUCGAAAGACAAAAACAGACAUGAGGAUCACCCAUGUAAAGGGUGAACAAGCCACCCGCUCGUCUUAAAAAAAAAA [Mat - Sensor v2 - JL mod - D25] (Eterna round: R96, puzzle: Sensor v2, turn-off variant)",apparent KD of MS2 coat protein,input ligand: FMN 200 uM,136 nM
same,apparent KD of MS2 coat protein,[1],69.2 nM
same,apparent KD of MS2 coat protein,input ligand: none,114 nM
"AGUCGGAAGACAAAAGGAAACAUGAGGAUCACCCAUGUAAAGGGUGAAAACAAGCCACCCGCUCGUCUUAAAGAAAA [Mat - Sensor v2- JL mod - D44] (Eterna round: R96, puzzle: Sensor v2, turn-off variant)",apparent KD of MS2 coat protein,input ligand: FMN 200 uM,40.7 nM
same,apparent KD of MS2 coat protein,[1],144 nM
same,apparent KD of MS2 coat protein,input ligand: none,46.1 nM
AGUCGGCGAGGAUAUACAUGAGGAUCACCCAUGUGUGAUCCUAGACCUGUAGGUCCAUGUAGAAGGCGCUGACA [Exclusion 3 - Was a mod at one point] (puzzle: Exclusion 3),apparent KD of MS2 coat protein,[2],18.8 nM
"AGUCGGUCAGGAUAUGCAUACGUAGACAUGAGGAUCACCCAUGUGACGUGGGCCUGGUGUGUAGAAGGGACGAGCA [EX5 #82] (Eterna round: R97, puzzle: Exclusion 5)",apparent KD of MS2 coat protein,input ligand: FMN 200 uM,32.6 nM
same,apparent KD of MS2 coat protein,input ligand: none,17.6 nM
"AGUCGUAAACAAGUUUCUGACAUGAGGAUCACCCAUGUGAGACUAAAAGUAUCAGAUUGCCUAAUAAGUAGCUCGUC [Eternabot (L2) Solution 29] (Eterna round: R97, puzzle: Sensor, turn-off variant 1)",apparent KD of MS2 coat protein,input ligand: FMN 200 uM,20.6 nM
same,apparent KD of MS2 coat protein,input ligand: none,23.5 nM
"AGUCGUAGACAGGAUAUGCGGCUAAUAAAUAAAGCAGAAGGGUCUACUUGAGGAUCACCCAAGUGGGCGGUUUA [jl-ex6-4.20 ViennaUCT mod] (Eterna round: R97, puzzle: Exclusion 6)",apparent KD of MS2 coat protein,input ligand: FMN 200 uM,96.3 nM
same,apparent KD of MS2 coat protein,input ligand: none,23.1 nM
AGUCUGCUAGGAUAUACAUGAGGAUCACCCAUGUCUAUCAAAAGACUAUUAACCUGGUGUAGAAGGAGCUUGUA [Lasodiar] (puzzle: Exclusion 3),apparent KD of MS2 coat protein,[2],10.7 nM
AGUGCGUAUGUGAGGAUAUGCUGGUCCUUGGAUCAGCAGAAGGCACAUGAGGAUCACCCAUGUGGUGUCGUACC [salish99_Bmod_Ex4_003] (puzzle: Brourd's mod of Exclusion 4),apparent KD of MS2 coat protein,[2],180 nM
AGUGCGUAUGUGAGGAUAUGCUGGUCCUUGGAUCGGCAGAAGGCACAUGAGGAUCACCCAUGUGGUGUCGUACU [salish99_Bmod_ex4_084] (puzzle: Brourd's mod of Exclusion 4),apparent KD of MS2 coat protein,[2],280 nM
"AGUUAGAAAGGAUAUACAUGAGGAUCACCCAUGUAGGGCUGUUAGAGACCCGGUCUCUGUAGAAGGUUCGAACU [EX3 C.16] (Eterna round: R97, puzzle: Exclusion 3)",apparent KD of MS2 coat protein,input ligand: FMN 200 uM,30.8 nM
same,apparent KD of MS2 coat protein,input ligand: none,28.9 nM
"AGUUCACAUGAGGAUCACCCAUGUGAGGAUAUGGAUUCGCUGGCCGUAGCCAGUGGAUCCAGAAGGCGCAUGAU [JL-ex1-4.14] (Eterna round: R97, puzzle: Exclusion 1)",apparent KD of MS2 coat protein,input ligand: FMN 200 uM,36.9 nM
same,apparent KD of MS2 coat protein,input ligand: none,32 nM
"AGUUGACGAGAAGGAUAUCCGAACCUUUAAAGAGGAGAAGGUCUAUCAACAUGAGGAUCACCCAUGUACAUCGCUCGGGUGUCC [Arenis] (Eterna round: R96, puzzle: Exclusion NG 1)",apparent KD of MS2 coat protein,[1],54.7 nM
AGUUGCGCAGGAUAUACAUGAGGAUCACCCAUGUGAGAGAAAUAAGUGAGGAAGAAAAGUAGAAGGGCGUGACA [Mat - Exclusion 3 - Mod of Salish D74] (puzzle: Exclusion 3),apparent KD of MS2 coat protein,[3],236 nM
same,apparent KD of MS2 coat protein,[2],40.6 nM
same,apparent KD of MS2 coat protein,[4],47.1 nM
AGUUGCGCAGGAUAUACAUGAGGAUCACCCAUGUGAGAGAAAUAAGUGAGGAAGAAAAGUAGAAGGGCGUGACG [Mat - Exclusion 3 - Mod of Salish D73] (puzzle: Exclusion 3),apparent KD of MS2 coat protein,[3],281 nM
same,apparent KD of MS2 coat protein,[2],53.8 nM
same,apparent KD of MS2 coat protein,[4],57.3 nM
"AGUUGGCGAGGAUAUACAUGAGGAUCACCCAUGUAAAAAAAAAAAAAAAAAACUUCAUGUAGAAGGCGCUGACA [Starry Exclusion 3.4 (biggestlegoheroicafanever round 1 mod)] (Eterna round: R96, puzzle: Exclusion 3)",apparent KD of MS2 coat protein,input ligand: FMN 200 uM,327 nM
same,apparent KD of MS2 coat protein,[1],200 nM
same,apparent KD of MS2 coat protein,input ligand: none,373 nM
"AGUUGGCGAGGAUAUACAUGAGGAUCACCCAUGUAAGAGAUACGAGUAAGGUAAAUAUGUAGAAGGCGCUGACA [JR_Ex3_Sub076] (Eterna round: R97, puzzle: Exclusion 3)",apparent KD of MS2 coat protein,input ligand: FMN 200 uM,251 nM
same,apparent KD of MS2 coat protein,input ligand: none,26.9 nM
AGUUGGCGAGGAUAUACAUGAGGAUCACCCAUGUGAAAUAUAAUAGUGAGGAAGAAAAGUAGAAGGCGCUGACA [Mat - Exclusion 3 - Mod of Salish D42] (puzzle: Exclusion 3),apparent KD of MS2 coat protein,[2],42.7 nM
"AGUUGGCGAGGAUAUACAUGAGGAUCACCCAUGUGAGAGGUACUAGUGAGGUCGAUUAGUAGAAGGCGCUGACA [Mat X3R4 m10] (Eterna round: R97, puzzle: Exclusion 3)",apparent KD of MS2 coat protein,input ligand: FMN 200 uM,2100 nM
same,apparent KD of MS2 coat protein,input ligand: none,48.3 nM
"AGUUGGGAAGGAUAUACAUGAGGAUCACCCAUGUGAAAUUAUAGUGAGGAAAUGAAAAGUAGAAGGUCCUGACA [Mod of Mat 4 - Jieux - Exclusion 3] (Eterna round: R97, puzzle: Exclusion 3)",apparent KD of MS2 coat protein,input ligand: FMN 200 uM,147 nM
same,apparent KD of MS2 coat protein,input ligand: none,35.8 nM
"AGUUGUUGCGCAGGAUAUGAGGAUCACCCAUAGAAGGAUAUCGAAAGAGAAGGUCUGAGGAUUACCCAGAAGGGCGUGAUGACA [pwkr exNG2 2xF5 2xFMN.8] (Eterna round: R96, puzzle: Exclusion NG 2)",apparent KD of MS2 coat protein,input ligand: FMN 200 uM,905 nM
same,apparent KD of MS2 coat protein,[1],130 nM
same,apparent KD of MS2 coat protein,input ligand: none,184 nM
"AUAAAACGUGUAGGAUAUGCGUGGCGAAGCUAUGCAGAAGGACAUGAGGAUCACCCAUGUUCUAGCGUCUGCGUACAGAUGCUA [JL eng1 1.35 mod 4] (Eterna round: R96, puzzle: Exclusion NG 1)",apparent KD of MS2 coat protein,input ligand: FMN 200 uM,18.2 nM
same,apparent KD of MS2 coat protein,[1],10.9 nM
same,apparent KD of MS2 coat protein,input ligand: none,14.8 nM
"AUAAAGUGAGGAUAUCCAAUAUAUGACAUGAGGAUCACCCAUGUUUCCACUCGUACCUCCGGAGAAGGCACAAUUU [Ex5 #63] (Eterna round: R97, puzzle: Exclusion 5)",apparent KD of MS2 coat protein,input ligand: FMN 200 uM,24.5 nM
same,apparent KD of MS2 coat protein,input ligand: none,29.2 nM
"AUAAAUCAUGUAGGAUAUGCAUAGCAAAGCUAUGCAGAAGGACAUGAGGAUCACCCAUGUCAUUCCGUCUGGAGACAGACGGGA [Mat - Exclusion NG 1 - Mod of JL - D57] (Eterna round: R96, puzzle: Exclusion NG 1)",apparent KD of MS2 coat protein,input ligand: FMN 200 uM,129 nM
same,apparent KD of MS2 coat protein,[1],26.4 nM
same,apparent KD of MS2 coat protein,input ligand: none,32 nM
"AUAAGCCCGGCAGGAUAUCACAGGUUGCCGGGUAUCAACAUGAGGAUCACCCAUGUACACCUGCUUGAGAAGGGCCCAAGGGCG [Inarza] (Eterna round: R96, puzzle: Exclusion NG 2)",apparent KD of MS2 coat protein,input ligand: FMN 200 uM,163 nM
same,apparent KD of MS2 coat protein,[1],69.6 nM
same,apparent KD of MS2 coat protein,input ligand: none,80.3 nM
"AUAAGCUUUGAGAUCCUUAACAUGAGGAUCACCCAUGUUCGUCUUAUGAUGGUCUGAUCCCUGAGGAUCGGACCGUA [Mat - Sensor v3 - turn-off var 1 - JL Mod - D1] (puzzle: Sensor v3, turn-off variant 1)",apparent KD of MS2 coat protein,[3],146 nM
same,apparent KD of MS2 coat protein,[2],28.4 nM
same,apparent KD of MS2 coat protein,[4],186 nM
"AUAAGUAUAUAGGAUAUCUAGCUGGAAACAGCUAGAGAAGGAUGUACAUGAGGAUCACCCAUGUAAAUCAAUAG [Ex6/8-A2] (Eterna round: R97, puzzle: Exclusion 6)",apparent KD of MS2 coat protein,input ligand: FMN 200 uM,17.9 nM
same,apparent KD of MS2 coat protein,input ligand: none,19.6 nM
"AUAAGUGAUAAGGAUAUCACUAGCCUCGGCUAGUGAGAAGGUAUCACAUGAGGAUCACCCAUGUGUUCCAAUAA [Ex6/7-A2] (Eterna round: R97, puzzle: Exclusion 6)",apparent KD of MS2 coat protein,input ligand: FMN 200 uM,1350 nM
same,apparent KD of MS2 coat protein,input ligand: none,169 nM
AUAAUAAUAUAGGAUAUCGAAUUAAUUAUUUAACGAGAAGGAUGAACAUGAGGAUCACCCAUGUGGUAUCAUGG [Mat - Exclusion 6 - JL Mod - D34] (puzzle: Exclusion 6),apparent KD of MS2 coat protein,[3],255 nM
same,apparent KD of MS2 coat protein,[2],244 nM
same,apparent KD of MS2 coat protein,[4],317 nM
"AUAAUGUAAGGAUAUAUGAAUCACGGUGAUACACCGUGAAGAUAGAAGGUACAUGAGGAUCACCCAUGUAAGGC [Mod of Anonveat 12 - Jieux - Exclusion 4] (Eterna round: R97, puzzle: Exclusion 4)",apparent KD of MS2 coat protein,input ligand: FMN 200 uM,12.1 nM
same,apparent KD of MS2 coat protein,input ligand: none,21 nM
"AUAAUGUAAGGAUAUCAGUCGUACAGCGAUAGCUGUACGACUGAGAAGGUACAUGAGGAUCACCCAUGUGAUCA [E4/8-A4] (Eterna round: R97, puzzle: Exclusion 4)",apparent KD of MS2 coat protein,input ligand: FMN 200 uM,666 nM
same,apparent KD of MS2 coat protein,input ligand: none,3680 nM
"AUAAUGUCAGGAUAUCGAACUUACUACCUCGGUAGUAAGUUCGAGAAGGGACAUGAGGAUCACCCAUGUGAUCA [E4/1-A5] (Eterna round: R97, puzzle: Exclusion 4)",apparent KD of MS2 coat protein,input ligand: FMN 200 uM,68.5 nM
same,apparent KD of MS2 coat protein,input ligand: none,195 nM
"AUAAUGUCAGGAUAUCGAGACUACUGCUUCGGCAGUAGUCUCGAGAAGGGACAUGAGGAUCACCCAUGUGAUCA [E4/1-A1] (Eterna round: R97, puzzle: Exclusion 4)",apparent KD of MS2 coat protein,input ligand: FMN 200 uM,41.8 nM
same,apparent KD of MS2 coat protein,input ligand: none,40.8 nM
"AUAAUGUGAGGAUAUCACGGCCCGGAGAAUCCGGUAAACGAUGAGAAGGCACAUGAGGAUCACCCAUGUUCCUG [EX4 A.4] (Eterna round: R97, puzzle: Exclusion 4)",apparent KD of MS2 coat protein,input ligand: FMN 200 uM,44.3 nM
same,apparent KD of MS2 coat protein,input ligand: none,18.3 nM
